Laboratory results as given in US12397036B2, “Peptide exchange protein” (Cambridge Enterprise Limited, priority 2018, dated 2025).

Legend:
H-2K^b expressed on EL4 = target: T1, H-2K^b expressed on EL4 (Mus musculus, UniProt P01901); test: […] loading on EL4 cells (SIINFEK*L and 25-D1.16 mAb); format: cell-based, murine; details: 1 μM TAPBPR, 1 nM peptide 30 min
T1 construct: surface expressed H-2K^b are relatively more peptide receptive compared to human MHC I molecules; endogenous in cells; host or cells: EL4 (murine tumour cell line)
T1 sequence (P01901 22-369): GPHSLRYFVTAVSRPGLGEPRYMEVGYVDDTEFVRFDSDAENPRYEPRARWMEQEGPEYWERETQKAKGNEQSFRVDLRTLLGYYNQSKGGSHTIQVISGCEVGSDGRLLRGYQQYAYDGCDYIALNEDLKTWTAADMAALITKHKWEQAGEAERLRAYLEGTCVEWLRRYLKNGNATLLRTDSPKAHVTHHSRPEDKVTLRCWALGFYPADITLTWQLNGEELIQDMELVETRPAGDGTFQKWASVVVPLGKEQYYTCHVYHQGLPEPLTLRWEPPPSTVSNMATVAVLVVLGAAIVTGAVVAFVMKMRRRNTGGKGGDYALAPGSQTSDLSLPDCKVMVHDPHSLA
T1 sequence (P01887 21-119 partner): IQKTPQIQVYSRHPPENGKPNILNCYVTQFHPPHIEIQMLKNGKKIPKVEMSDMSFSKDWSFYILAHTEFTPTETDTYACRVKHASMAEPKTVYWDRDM
Description: Histograms are representative of three independent experiments. (19d) Bar graphs show the MFI of 25-D1.16−/+SD from three independent experiments. (19e) OT1 killing of EL4 cells treated −/+1 μM soluble TAPBPR^WT or TAPBPR^TN5, followed by incubation with 1 nM […] peptide. Error bars−/+s.e.m from triplicate wells. Data is representative of three independent experiments. Note: surface expressed H-2K^b are relatively more peptide receptive compared to human MHC I molecules. […] As OT1 T cells are highly efficient cytotoxic cells, killing 80-100% of targets after 1-4 hours, we decreased the concentration of […] used in these experiments to 1 nM in order to differentiate between TAPBPR-mediated and background peptide binding, otherwise we would not observe an additive effect of soluble TAPBPR on target cell killing.

EL4 cells = test: Binding of soluble human TAPBPR to EL4 cells (PeTe-4); parameters: species or system murine; details: 1 μM, 15 min, 37° C.
[1] = target: T2, surface MHC class I molecules (HLA-A*68:02) on HeLaM cells (Homo sapiens, UniProt P04439, A269V/D140Y/D185E/E176V/E277Q/E87N/F33Y/G231S/I121R/I166T/I218V/L180W/L300P/L318F/N151K/P208A/P217A/Q86R/R138H/R169H/S129P/T345S/V36M); test: Binding of exogenous soluble TAPBPR to cells (PeTe-4 staining); details: 100 nM, 15 min, 37° C.
T2 construct: HLA-A68 (MHC class I) expressed on HeLa; endogenous in cells; host or cells: HeLaM and derivatives (TAPBPR-KO with or without TAPBPR/tapasin constructs, +Her2, Her2-KO, +PDL1, pD-GFP); in some arms HeLaM-HLA-ABC-KO re-expressing HLA-A*68:02
Description: (§1) (g) Dose response curves of IFN-γ treated HeLaM and HeLaM-HLA-ABC^KO cells treated −/+100 nM TAPBPR with increasing concentrations of ETVSK*QSNV for 15 min at 37° C. Line graphs show MFI−/+s.e.m from three independent experiments. […] (h) Histograms of the typical fluorescent peptide binding observed using flow cytometry. (i) Bar graphs showing the MFI of fluorescent peptide binding to HeLaM HLA-ABC^KO+A2−/+s.e.m from two independent experiments with duplicates. ***P≤0.001, ****P≤0.0001, n/s not significant, using unpaired two-tailed t-test.
(§2) Following trypsinisation, cells were washed in 1% bovine serum albumin (BSA), dissolved in 1×PBS at 4° C. and then stained for 30 min at 4° C. in 1% BSA containing one of the following antibodies: W6/32, pete4, pasta-1, anti-HLA-A68-reactive mAb, BB7.2 or with an isotype control antibody. After washing the cells to remove excess unbound antibody, the primary antibodies bound to the cells were detected by incubation at 4° C. for 25 min with either goat anti-mouse Alexa-Fluor 647 IgG (Invitrogen Molecular Probes, Thermo Fisher Scientific) or with Alexa-Fluor 647-conjugated streptavidin (Invitrogen Molecular Probes, Thermo Fisher […]

[2] = system: surface MHC class I molecules (HLA-A*68:02) on HeLaM cells; test: as above; parameters: species or system human; details: cells lacking classical MHC class I expression
Description: as §1, §2

[3] = target: T3, HLA-A*02:01 naturally expressed on MCF-7 (Homo sapiens, UniProt P04439, D140Y/D185E/D98H/E176V/E277Q/G131W/G231S/I119V/I121R/I166T/I218V/L300P/L318F/N151K/N90K/P208A/P217A/Q86G/Q94H/R138H/R169H/T345S); test: Fluorescent peptide loading onto MCF-7 cells by soluble TAPBPR; format: cell-based
T3 construct: onto HLA-A*02:01 naturally expressed on MCF-7, a breast cancer cell line; endogenous in cells
Description: (YLL) followed by staining with the TCR-like mAb L1 specific for […]/HLA-A2 complexes. (6d) The MFI of L1 binding to MCF-7 cells −/+SD from three independent experiments. (6e) Bar graphs show T cell activity measured by IFN-γ secretion in fluorospot assays of a HLA-A2 restricted […] specific CD8+ T cell line when incubated with MCF-7 target cells as treated in FIG. 6b with the exception that non-fluorescent […] peptide at 100 pM was used. […] Error bars−/+SD. Note: In FIGS. 6a, 6b, & 6e IFNγ treated cells were used.
Target cell lines were seeded at 25,000-30,000 cells/well in 12-well plates and stimulated with IFN-γ. Following the stimulation period, the cells were washed 3 times with 1×PBS and incubated with 300 μL pre-warmed opti-MEM (Thermo Fisher Scientific, UK). In case the peptide binding was done in the presence of recombinant TAPBPR, the cells were then treated with or without recombinant TAPBPR (100 nM for HLA-A*68:02 or 1 μM for HLA-A*02:01). After 15 min, the desired TAMRA-labelled peptide was added to the cells and incubated at 37° C. (15 min for HLA-A*68:02 or 60 min for HLA-A*02:01). In case the peptide binding was facilitated by over-expressed TAPBPR, the labelled peptide was directly added to the cells, without using recombinant TAPBPR. […] The level of bound peptide/cell was determined by flow cytometry, using the YelFL1 channel (Cytek).

B1: soluble TAPBPR^WT: secreted His-tagged luminal domain of human TAPBPR, lacking transmembrane domain and cytoplasmic tail; SEQ ID NO: 2 (protein)
chain: KPHPAEGQWRAVDVVLDCFLVKDGAHRGALASSEDRARASLVLKQVPVLDDGSLEDFTDFQGGTLAQDDPPIIFEASVDLVQIPQAEALLHADCSGKEVTCEISRYFLQMTETTVKTAAWFMANVQVSGGGPSISLVMKTPRVAKNEVLWHPTLNLPLSPQGTVRTAVEFQVMTQTQSLSFLLGSSASLDCGFSMAPGLDLISVEWRLQHKGRGQLVYSWTAGQGQAVRKGATLEPAQLGMARDASLTLPGLTIQDEGTYICQITTSLYRAQQIIQLNIQASPKVRLSLANEALLPTLICDIAGYYPLDVVVTWTREELGGSPAQVSGASFSSLRQSVAGTYSISSSLTAEPGSAGATYTCQVTHISLEEPLGASTQVVPPERR
modifications: His tag; TAPBPR luminal domain (mature sequence without 21 aa leader sequence)
Q: For B1, which “loading of SIINFEKL onto H-2K^b” value (H-2K^b expressed on EL4) is on record?
A: The value was “significantly enhanced the loading of SIINFEKL”.

Q: And the “binding to EL4 cells” value (EL4 cells)?
A: The value was “bound to EL4 cells”.

Q: What about the “binding of exogenous TAPBPR to HeLaM cells” value [1] of the same molecule?
A: The value was “clearly detectable on the cell surface”.

Q: What about the “binding of exogenous TAPBPR to HeLaM-HLA-ABC^KO cells” value [2] of the same molecule?
A: Its value is “could no longer bind”.

Q: And the “loading of fluorescent derivatives of tumour antigens IMDQVPFSV, […], LLGRNSFEV and RLLQETELV” value ([3]; 1 μM TAPBPR 15 min, 10 nM peptide 60 min)?
A: The value was “significantly enhanced the loading”.

Q: What about the “association of YLLEK*LWRL and NLVPK*VATV onto HLA-A2” value ([3]; versus peptide alone or TAPBPR^TN5) of the same molecule?
A: Its value is “enhanced the association”.
